Experimental data reported in patent US20040082080A1, “Method of measuring molecular interactions” (priority 2002, published 2004).

Target: T1, low affinity nerve growth factor receptor, gp75 (Homo sapiens, UniProt P08138)
T1 construct: were expressed endogenously in A875 cells; endogenous in cells; host or cells: A875 cells
Test: FCS autocorrelation on A875 cells, gp75 receptor stoichiometry
Type: cell-based
Settings: 180 nM NGF for 5 minutes
Text: Macromolecular stoichiometry, i.e., the quantitative proportions with which two macromolecules interact, of a target can be determined from autocorrelation data. Starting with Equation 4, macromolecular stoichiometry can be calculated if it is assumed that intersystem crossing and particle diffusion are independent sources of fluctuation. The first occurs in the microsecond (μs) time domain and results from intersystem crossing of fluorophores between the singlet and triplet states. The second occurs in the millisecond (ms) time domain, and results from the diffusion of particles into and out of the confocal volume. […]
where F1N′P defines the total number of fast diffusing particles, i.e., uncomplexed fluorescently tagged probes, and F2N′P defines the total number of slow diffusing complexes formed. […] S is obtained with Equation 8 for each target concentration using the parameter values obtained by fitting to Equation 6 and the calibration factor determined with Equation 7
The samples were analyzed using a fluorescence correlation spectroscopy instrument configured to distinct fluorescence emission at different wavelengths and a data processing program capable of autocorrelation, crosscorrelation, Fourier transform and Moment analyses. […]

T1 sequence (P08138 29-427): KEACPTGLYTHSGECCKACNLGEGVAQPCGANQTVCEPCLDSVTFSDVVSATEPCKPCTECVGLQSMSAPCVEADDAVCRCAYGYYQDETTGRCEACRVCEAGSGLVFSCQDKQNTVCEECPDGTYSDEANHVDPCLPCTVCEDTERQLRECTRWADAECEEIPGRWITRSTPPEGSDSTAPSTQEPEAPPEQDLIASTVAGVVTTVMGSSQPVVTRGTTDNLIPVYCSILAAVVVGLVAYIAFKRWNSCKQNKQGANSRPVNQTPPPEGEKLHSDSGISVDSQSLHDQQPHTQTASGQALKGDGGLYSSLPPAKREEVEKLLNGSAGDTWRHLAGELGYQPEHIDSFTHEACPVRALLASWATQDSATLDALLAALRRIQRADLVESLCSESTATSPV

nerve growth factor [NGF]
stoichiometry calculation for gp75 (Equation 8): 0.94
